The results in this text go back to the supplement of paper PMC11246515.

± gives the standard deviation of the averaged measurements.

This data set in a line: total protein half-life in vivo (active degradation + dilution); higher = more stable protein.
[1] abbreviates: E. coli NCM3722 delta-clpP delta-lon delta-hslV, growth: N-lim chemostat, doubling time 6 h.
[2] abbreviates: E. coli NCM3722 delta-clpP, growth: N-lim chemostat, doubling time 6 h.
The mark [3] stands for this setting: E. coli NCM3722 delta-hslV, growth: N-lim chemostat, doubling time 6 h.
[4] abbreviates: E. coli NCM3722 delta-lon, growth: N-lim chemostat, doubling time 6 h.
Setting [5] is: E. coli NCM3722 delta-smpB, growth: N-lim chemostat, doubling time 6 h.
[6] abbreviates: wild type E. coli NCM3722, growth: C-lim chemostat, doubling time 3 h.
Where [7] appears, read: wild type E. coli NCM3722, growth: C-lim chemostat, doubling time 6 h.
The mark [8] stands for this setting: wild type E. coli NCM3722, growth: C-lim chemostat, doubling time 12 h.
Setting [9] is: wild type E. coli NCM3722, growth: N-lim chemostat, doubling time 6 h.
The mark [10] stands for this setting: wild type E. coli NCM3722, growth: N-lim chemostat, doubling time 12 h.
Setting [11] is: wild type E. coli NCM3722, growth: P-lim chemostat, doubling time 6 h.
Setting [12] is: wild type E. coli NCM3722, growth: P-lim chemostat, doubling time 12 h.

With “MQYHRIPHSSLEVSTLGLGTMTFGEQNSEADAHAQLDYAVAQGINLIDVAEMYPVPPRPETQGLTETYVGNWLAKHGSREKLIIASKVSGPSRNNDKGIRPDQALDRKNIREALHDSLKRLQTDYLDLYQVHWPQRPTNCFGKLGYSWTDSAPAVSLLDTLDALAEYQRAGKIRYIGVSNETAFGVMRYLHLADKHDLPRIVTIQNPYSLLNRSFEVGLAEVSQYEGVELLAYSCLGFGTLTGKYLNGAKPAGARNTLFSRFTRYSGEQTQKAVAAYVDIARRHGLDPAQMALAFVRRQPFVASTLLGATTMDQLKTNIESLHLELSEDVLAEIEAVHQVYTYPAP [P0A9T4]”, the “total protein half-life in vivo” value under setting [1] was 5.76 ± 0.33 h; the “total protein half-life in vivo” value under setting [2] turned out to be 5.29 ± 0.14 h; the “total protein half-life in vivo” value under setting [3] is 5.5 ± 0.14 h; the “total protein half-life in vivo” value under setting [4] came to 4.99 ± 0.068 h; the “total protein half-life in vivo” value under setting [5] amounted to 4.6 ± 0.38 h; the “total protein half-life in vivo” value under setting [6] was determined as 3.41 ± 0.077 h. Also, the “total protein half-life in vivo” value is, setting by setting: under setting [7], 5.9 ± 0.19 h; under setting [8], 10.4 ± 0.85 h; under setting [9], 4.88 ± 0.55 h; under setting [10], 8.51 ± 0.57 h; under setting [11], 6.32 ± 0.44 h; under setting [12], 12.8 ± 0.13 h.

On to “MQKKSIYVAYTGGTIGMQRSEQGYIPVSGHLQRQLALMPEFHRPEMPDFTIHEYTPLMDSSDMTPEDWQHIAEDIKAHYDDYDGFVILHGTDTMAYTASALSFMLENLGKPVIVTGSQIPLAELRSDGQINLLNALYVAANYPINEVTLFFNNRLYRGNRTTKAHADGFDAFASPNLPPLLEAGIHIRRLNTPPAPHGEGELIVHPITPQPIGVVTIYPGISADVVRNFLRQPVKALILRSYGVGNAPQNKAFLQELQEASDRGIVVVNLTQCMSGKVNMGGYATGNALAHAGVIGGADMTVEATLTKLHYLLSQELDTETIRKAMSQNLRGELTPDD [P0A962]”, for which the “total protein half-life in vivo” value was 5.54 ± 0.6 h under setting [1]; 5.31 ± 0.36 h under setting [2]; 6.03 ± 0.21 h under setting [3]; 5.69 ± 0.17 h under setting [4]; 5 ± 0.11 h under setting [5]; 3.18 ± 0.034 h under setting [6]. For the same sequence, the “total protein half-life in vivo” value was 5.81 ± 0.83 h under setting [7]; 12 ± 1.2 h under setting [8]; 5.74 ± 0.28 h under setting [9]; 10.9 ± 0.4 h under setting [10]; 5.81 ± 0.6 h under setting [11]; 11.5 ± 1.4 h under setting [12].

Consider “MDDCGAILHNIETKWLYDFLTLEKCRNFSQAAVSRNVSQPAFSRRIRALEQAIGVELFNRQVTPLQLSEQGKIFHSQIRHLLQQLESNLAELRGGSDYAQRKIKIAAAHSLSLGLLPSIISQMPPLFTWAIEAIDVDEAVDKLREGQSDCIFSFHDEDLLEAPFDHIRLFESQLFPVCASDEHGEALFNLAQPHFPLLNYSRNSYMGRLINRTLTRHSELSFSTFFVSSMSELLKQVALDGCGIAWLPEYAIQQEIRSGKLVVLNRDELVIPIQAYAYRMNTRMNPVAERFWRELRELEIVLS”, for which the “total protein half-life in vivo” value was found to be 5 ± 0.22 h under setting [1]; 4.98 h under setting [3]; 4.5 h under setting [4]; 2.52 h under setting [6]; 5.18 h under setting [7]; 5.51 h under setting [9]. In addition, the “total protein half-life in vivo” value under setting [12] amounted to 10.4 ± 0.27 h.

“MSLNMFWFLPTHGDGHYLGTEEGSRPVDHGYLQQIAQAADRLGYTGVLIPTGRSCEDAWLVAASMIPVTQRLKFLVALRPSVTSPTVAARQAATLDRLSNGRALFNLVTGSDPQELAGDGVFLDHSERYEASAEFTQVWRRLLQRETVDFNGKHIHVRGAKLLFPAIQQPYPPLYFGGSSDVAQELAAEQVDLYLTWGEPPELVKEKIEQVRAKAAAHGRKIRFGIRLHVIVRETNDEAWQAAERLISHLDDETIAKAQAAFARTDSVGQQRMAALHNGKRDNLEISPNLWAGVGLVRGGAGTALVGDGPTVAARINEYAALGIDSFVLSGYPHLEEAYRVGELLFPLLDVAIPEIPQPQPLNPQGEAVANDFIPRKVAQS”: the “total protein half-life in vivo” value under setting [1] was determined as 5.43 ± 0.79 h.

With “MHSERAPFFLKLAAWGGVVFLHFPILIIAAYAFNTEDAAFSFPPQGLTLRWFSVAAQRSDILDAVTLSLKVAALATLIALVLGTLAAAALWRRDFFGKNAISLLLLLPIALPGIVTGLALLTAFKTINLEPGFFTIVVGHATFCVVVVFNNVIARFRRTSWSLVEASMDLGANGWQTFRYVVLPNLSSALLAGGMLAFALSFDEIIVTTFTAGHERTLPLWLLNQLGRPRDVPVTNVVALLVMLVTTLPILGAWWLTREGDNGQ [P0AFR9]”, the “total protein half-life in vivo” value under setting [1] was determined as 6.7 h.

In the case of “MESLMPWDARDTMSLRTEFVLFASQDGANIRSLCRRFGISPATGYKWLQRWAQEGAAGLQDRPRIPHHSPNRSSDDITALLRMAHDRHERWGARKIKRWLEDQGHTMPAFSTVHNLMARHGLLPGASPGIPATGRFEHDAPNRLWQMDFKGHFPFGGGRCHPLTLLDDHSRFSLCLAHCTDERRETVQQQLVSVFERYGLPDRMTMDNGSPWGDTTGTWTALELWLMRLGIRVGHSRPYHPQTQGKLERFHRSLKAEVLQGKWFADSGELQRAFDHWRTVYNLERPHEALDMAVPGSRYQPSARQYSGNTTPPEYDEGVMVRKVDISGKLSVKGVSLSAGKAFRGERVGLKEMQEDGSYEVWWYSTKVGVIDLKKKSITMGKGC”, the “total protein half-life in vivo” value reads like this: under setting [1], 3.5 ± 0.88 h; under setting [2], 3.06 h; under setting [7], 2.18 h; under setting [8], 5.67 h; under setting [10], 4.45 h.

On to “MMTKTQINKLIKMMNDLDYPFEAPLKESFIESIIQIEFNSNSTNCLEKLCNEVSILFKNQPDYLTFLRAMDGFEVNGLRLFSLSIPEPSVKNLFAVNEFYRNNDDFINPDLQERLVIGDYSISIFTYDIKGDAANLLI”, for which the “total protein half-life in vivo” value under setting [1] was 4.14 h.

In the case of “MAIPKLQAYALPESHDIPQNKVDWAFEPQRAALLIHDMQDYFVSFWGENCPMMEQVIANIAALRDYCKQHNIPVYYTAQPKEQSDEDRALLNDMWGPGLTRSPEQQKVVDRLTPDADDTVLVKWRYSAFHRSPLEQMLKESGRNQLIITGVYAHIGCMTTATDAFMRDIKPFMVADALADFSRDEHLMSLKYVAGRSGRVVMTEELLPAPIPASKAALREVILPLLDESDEPFDDDNLIDYGLDSVRMMALAARWRKVHGDIDFVMLAKNPTIDAWWKLLSREVK [P0ADI4]”, the “total protein half-life in vivo” value runs as follows: under setting [1], 6.06 ± 2.3 h; under setting [2], 2.48 h; under setting [3], 1.47 h; under setting [5], 1.73 ± 0.48 h; under setting [6], 2.18 ± 0.18 h; under setting [7], 3.32 ± 0.47 h. For the same sequence, the “total protein half-life in vivo” value was 5.74 ± 0.72 h under setting [8], 4.49 h under setting [10] and 5.51 h under setting [12].

“MSSKEQKTPEGQAPEEIIMDQHEEIEAVEPEASAEQVDPRDEKVANLEAQLAEAQTRERDGILRVKAEMENLRRRTELDIEKAHKFALEKFINELLPVIDSLDRALEVADKANPDMSAMVEGIELTLKSMLDVVRKFGVEVIAETNVPLDPNVHQAIAMVESDDVAPGNVLGIMQKGYTLNGRTIRAAMVTVAKAKA”: the “total protein half-life in vivo” value reads like this: under setting [1], 6.35 ± 0.23 h; under setting [2], 6.61 ± 1.3 h; under setting [3], 5.31 ± 0.46 h; under setting [4], 5.19 ± 0.26 h; under setting [5], 4.79 ± 0.18 h; under setting [6], 3.024 ± 0.0063 h. For the same sequence, the “total protein half-life in vivo” value is, setting by setting: under setting [7], 5.43 ± 0.17 h; under setting [8], 9.26 ± 0.18 h; under setting [9], 5.66 ± 0.14 h; under setting [10], 8.74 ± 0.79 h; under setting [11], 5.26 ± 0.24 h; under setting [12], 10.7 ± 0.15 h.
